The target of data set [1] is unacetylated histone H3 N-terminal tail peptide (residues 1-20).
Data set [2] addresses histone H4 (calf thymus), P62803.
Data set [3] has as its target histone H2B (calf thymus), P62808.
Data set [4] concerns the target histone H2A (calf thymus), P0C0S9.
For data set [5], the target named is histone H4 N-terminal tail peptide (residues 1-20) acetylated at Lys16.
Data set [6] has as its target histone H3 (calf thymus), intact protein, P68432.
Data set [7] concerns the target histone H3 N-terminal tail peptide (residues 1-20) di-acetylated at lysines 9 and 14.

B1: recombinant 6xHis-tagged full-length mSir2α (protein)
chain: MADEVALALQAAGSPSAAAAMEAASQPADEPLRKRPRRDGPGLGRSPGEPSAAVAPAAAGCEAASAAAPAALWREAAGAAASAEREAPATAVAGDGDNGSGLRREPRAADDFDDDEGEEEDEAAAAAAAAAIGYRDNLLLTDGLLTNGFHSCESDDDDRTSHASSSDWTPRPRIGPYTFVQQHLMIGTDPRTILKDLLPETIPPPELDDMTLWQIVINILSEPPKRKKRKDINTIEDAVKLLQECKKIIVLTGAGVSVSCGIPDFRSRDGIYARLAVDFPDLPDPQAMFDIEYFRKDPRPFFKFAKEIYPGQFQPSLCHKFIALSDKEGKLLRNYTQNIDTLEQVAGIQRILQCHGSFATASCLICKYKVDCEAVRGDIFNQVVPRCPRCPADEPLAIMKPEIVFFGENLPEQFHRAMKYDKDEVDLLIVIGSSLKVRPVALIPSSIPHEVPQILINREPLPHLHFDVELLGDCDVIINELCHRLGGEYAKLCCNPVKLSEITEKPPRPQKELVHLSELPPTPLHISEDSSSPERTVPQDSSVIATLVDQATNNNVNDLEVSESSCVEEKPQEVQTSRNVENINVENPDFKAVGSSTADKNERTSVAETVRKCWPNRLAKEQISKRLEGNQYLFVPPNRYIFHGAEVYSDSEDDVLSSSSCGSNSDSGTCQSPSLEEPLEDESEIEEFYNGLEDDTERPECAGGSGFGADGGDQEVVNEAIATRQELTDVNYPSDKS
With B1, the “ADP-ribosylation of peptide (32P-NAD, thin layer chromatography)” value was “modified only the diacetylated H3 tail peptide (unacetylated peptide not modified)” in data set [1]; “Both the yeast and mouse Sir2 modified only the diacetylated H3 tail peptide” in data set [7]. The “ADP-ribosylation (transfer of 32P from NAD, SDS-PAGE)” value with histone H1 (calf thymus) is “but not to H1, H2A and H4”; in data set [2] it was “but not to H1, H2A and H4”; in data set [3] it was “transferred radioactive ADP-ribose to H2B and H3”; in data set [4] it was “but not to H1, H2A and H4”; in data set [6], “transferred radioactive ADP-ribose to H2B and H3”. The “ADP-ribosyltransferase and NAD hydrolase activities (thin layer chromatography)” value in data set [5] was “Both ADP-ribosylation and NAD hydrolysis were stimulated by the Lys16Ac peptide”. In addition, in data set [7], the “NAD-dependent deacetylation (HPLC)” value is recorded as “gave rise to the same array of products with a similar yield as the yeast enzyme”.

The values are drawn from US8642284.
